Data published in patent publication US20240093191A1, “COMPOSITIONS AND METHODS FOR TREATING DISEASE ASSOCIATED WITH DUX4 OVEREXPRESSION” (RESEARCH INSTITUTE AT NATIONWIDE CHILDREN'S HOSPITAL, priority 2021, published 2024).

Assays:
Type in all cases: cell-based, human
[1] = test system: DUX4 ORF (RenLuc-DUX4 ORF); assay: Dual-luciferase assay, RenLuc-DUX4 ORF reporter co-transfected with miDUX4 plasmids in HEK293 cells; conditions: HEK293, 24 h
Protocol: Dual Luciferase Assay. (See also FIGS. 1A, 3A-B, 4A-B, 5B, and 16B-C.) This assay was performed as previously described by Wallace et al. (Mol. Ther. Methods Clin. Dev. 8: 121-30 (2018)) and following the dual-luciferase reporter assay system (Promega) protocol with some modifications. All plasmid constructs had the psiCheck2 dual luciferase reporter plasmid (Promega) as backbone that contains separate Renilla and Firefly luciferase genes, where the former contains the various target sequences used in the experiments of the disclosure, and the latter serves as a transfection normalizer (control). All DUX4 and control sequences were cloned downstream of the Renilla luciferase stop codon, serving as a 3′UTR. HEK293 cells were pre-plated 24h before transfection. Cells were then co-transfected with the luciferase DUX4 reporter and individual microRNA expression plasmids in an increasing luciferase DUX4 reporter:miRNA molar ratio using Lipofectamine 2000 (Invitrogen). Luciferase activity was measured 24h or 48h after transfection. DUX4 gene silencing was determined as previously described [Wallace et al., Mol. Ther. Methods Clin. Dev. 8: 121-30 (2018)]. Triplicate data were averaged per experiment, and individual experiments were performed 3 times. Results were reported as the average ratio of Renilla to Firefly luciferase activity±SEM for all combined experiments.
Accordingly, two new mi405 constructs, i.e., mi405F and mi405NF, were designed. […] To assess the inhibition efficiency of the three mi405 constructs, a dual-luciferase assay and western blot analysis, similar to what was described for mir-675, were carried out. In the dual-luciferase assay, U6.mi405, U6.mi405F, or U6.mi405NF was co-transfected into HEK293 cells along with the RenLuc-DUX4 ORF (a construct expressing the open reading frame of DUX4 as a 3′UTR sequence of Renilla Luciferase). 24 h after transfection, U6.mi405, U6.mi405F, and U6.mi405NF reduced the relative Renilla luciferase activity by 85±1%, 89±1%, and 66±1% (P<0.0001, ANOVA, N=3), respectively, when tested against the RenLuc-DUX4 ORF construct.

[2] = test system: DUX4-FL (DUX4 ORF + 3'UTR, RenLuc-DUX4-FL); assay: Dual-luciferase assay, RenLuc-DUX4-FL reporter co-transfected with miRNA plasmids in HEK293 cells; conditions: positive control, molar ratio not stated, 48 h
Excerpt: FIG. 1A. Dual-luciferase assay to test the ability of U6.mir-675 to target DUX4. Shown here is the mir-675 expression plasmid used in this study. In this construct, the RNA polymerase III U6 promoter (U6p) controls the expression of mir-675. A terminal signal formed of a stretch of six T nucleotides allows the termination of transcription. On the right, the secondary structure of the mir-675 along with its 5′ and 3′ end flanking sequences (Boxed) is shown. At the 5′ end, the flanking sequence is of 40 nucleotides long and at the 3′ end, the flanking sequence is of 47 nucleotides long starting from the nucleotide at position 114. U6.mir-675 was tested to target DUX4 using the dual-luciferase assay. To do this, DUX4 was cloned in the RenLuc-DUX4-FL expression plasmid (FIG. 1A), i.e., DUX4-FL (DUX4 ORF without V5 tag+3′UTR) was PCR amplified using CMV.DUX4-FLΔV5 as template with the following primers: forward: 5′ […] 3′ (SEQ ID NO: 125), reverse: 5′ […] 3′ (SEQ ID NO: 126). The PCR product was then cloned into a previously designed RenLuc SD5 mutant plasmid using XhoI/SpeI restriction sites and the RenLuc.SD5 mutant-DUX4 3′UTR plasmid backbone. The Renilla luciferase gene has a splicing donor mutation (*SID5) that prevents the alternative splicing of the DUX4-FL mRNA (Ansseau et al. (2015) PLoS One, 10, e0118813). The dual-luciferase assay was performed by co-transfecting the RenLuc-DUX4-FL and U6.mir-675 expression plasmids into the human embryonic kidney HEK293 cells. 48 hours after transfection, both the Renilla and Firefly luciferase activities were measured. The latter was used to normalize for Renilla luciferase activity. The non-targeting RenLuc control backbone plasmid (RenLuc) was co-transfected with U6.mir-675 and the RenLuc-DUX4-FL co-transfected with U6.milacZ as negative control reactions. In the other reactions, mir-675 reduced the relative Renilla luciferase activity by 24±3% (P<0.0001, ANOVA, N=3), 28±2% (P<0.0001, ANOVA, N=3) and 33±3% (P<0.0001, ANOVA, N=3) at a molarity ratio U6.mir-675: RenLuc-DUX4-FL (n:n) of 10 to 1, 20 to 1 and 40 to 1, respectively. All readings were normalized to the U6.milacZ (negative control). Six replicate data were averaged per experiment and individual experiments were performed in triplicate (N=3). Results were reported as the average relative Renilla luciferase activity±SEM for all combined experiments. […] A representative western blot gel and the quantification results of three independent western blot replicates (N=3) performed on 15 μg of total protein extracts collected from HEK293 cells 24 hours after co-transfection with the AAV.CMV.DUX4-FL and the U6.mir-675 or the human long non-coding H19 expression plasmid (CMV.H19) is shown here. […]

DUX4 protein = assay: Western blot of V5-tagged DUX4 protein in co-transfected HEK293 cells; conditions: 1:4 DUX4:mi405 molar ratio; HEK293; 24 h; normalized to miGFP; N=2

B1: U6.mi405: original artificially designed miDUX4 (mi405) U6 expression plasmid, Wallace et al. (nucleic acid)
DNA: ACGCCGCCATCTCTAGGCCCGCGCCGGCCCCCTCGCACAGACTTGTGGGAGAAGCTCGGCTACTCCCCTGCCCCGGTTAATTTGCATATAATATTTCCTAGTAACTATAGAGGCTTAATGTGCGATAAAAGACAGATAATCTGTTCTTTTTAATACTAGCTACATTTTACATGATAGGCTTGGATTTCTATAAGAGATACAAATACTAAATTATTATTTTAAAAAACAGCACAAAAGGAAACTCACCCTAACTGTAAAGTAATTGTGTGTTTTGAGACTATAAATATCCCTTGGAGAAAAGCCTTGTTTGCGTTTAGTGAACCGTCAGATGGTACCGTTTAAACTCGAGTGAGCGATCCAGGATTCAGATCTGGTTTCTGTAAAGCCACAGATGGGAAACCAGATCTGAATCCTGGACTGCCTACTAGAGCGGCCGCCACAGCGGGGAGATCCAGACATGATAAGATACATTTTTT
reduction of relative Renilla luciferase activity ([1]; 1:4 DUX4:mi405 molar ratio, normalized to miGFP): 85±1%
reduction of Renilla luciferase activity ([1]; DUX4:mi405 molar ratio 2 to 1, normalized to U6.miGFP): 62±2%
reduction of relative Renilla luciferase activity [2]: 80±2%
reduction of DUX4 protein levels (DUX4 protein): 79±1%
